In patent publication US12214008B2, “Protein interfaces” (SyntheX, Inc., priority 2016, dated 2025):

Experiments:
Type in all cases: binding
Set-up in all cases: key: cells having the interaction would survive (+); cells not having the interaction would die (−) on selective media (−ADE, −HIS)
[1] = target: T1, S.cerevisiae Rad51 (1-226) + H.sapiens Rad51 (168-339) (UniProt P25454+Q06609); assay: Y2H assay, RAD51 hybrid constructs
T1 construct: S.cerevisiae Rad51 (1-226) +; H.sapiens Rad51 (168-339); expressed in transfected cells
T1 sequence (Q06609 168-339, one chain of several): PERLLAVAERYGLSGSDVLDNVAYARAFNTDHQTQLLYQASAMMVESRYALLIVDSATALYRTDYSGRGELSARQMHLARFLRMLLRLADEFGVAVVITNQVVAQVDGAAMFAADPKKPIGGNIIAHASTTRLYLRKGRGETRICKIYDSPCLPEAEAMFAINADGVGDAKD
Description: (§1) RAD51-binding peptides were tested for ability to bind RAD51 of several different species using a “conventional” Y2H assay, where interaction between the two-hybrid pair drove expression of ADE2 and HIS genes. In this Y2H assay the two-hybrid pair was RAD51 and the compound 5 peptide sequence (SEQ ID NO.: 5), so that cells having the interaction would survive (+) and cells not having the interaction would die (−) on selective media (−ADE, −HIS).
(§2) Based on sequence comparisons of S. cerevisiae and H. sapiens RAD51, multiple cerevisiae-sapiens hybrid constructs of RAD51 were constructed and tested for their ability to bind RAD51-binding peptide in the same RAD51/SEQ ID NO.: 5 hybrid system described above.

[2] = target: T2, S.cerevisiae Rad51 (1-278) + H.sapiens Rad51 (218-339) (UniProt P25454+Q06609); assay: Y2H assay, RAD51 hybrid constructs
T2 construct: S.cerevisiae Rad51 (1-278) +; H.sapiens Rad51 (218-339); expressed in transfected cells
T2 sequence (P25454 1-278): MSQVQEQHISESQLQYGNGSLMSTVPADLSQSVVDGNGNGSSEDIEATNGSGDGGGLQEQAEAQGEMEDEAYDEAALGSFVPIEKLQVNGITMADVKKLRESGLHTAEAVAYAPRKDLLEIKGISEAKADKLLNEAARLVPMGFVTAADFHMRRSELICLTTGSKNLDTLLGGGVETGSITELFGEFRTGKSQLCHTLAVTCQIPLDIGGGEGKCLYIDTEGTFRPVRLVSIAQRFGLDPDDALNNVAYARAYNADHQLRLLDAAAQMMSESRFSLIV
T2 sequence (Q06609 218-339): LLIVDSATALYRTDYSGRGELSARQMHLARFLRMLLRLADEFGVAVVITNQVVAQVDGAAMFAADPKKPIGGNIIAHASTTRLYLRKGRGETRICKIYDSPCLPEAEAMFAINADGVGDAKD
Description: as §1, §2

[3] = target: T3, S.cerevisiae Rad51 (1-250) + H.sapiens Rad51 (190-339) (UniProt P25454+Q06609); assay: Y2H assay, RAD51 hybrid constructs
T3 construct: S.cerevisiae Rad51 (1-250) +; H.sapiens Rad51 (190-339); expressed in transfected cells
T3 sequence (Q06609 190-339, one chain of several): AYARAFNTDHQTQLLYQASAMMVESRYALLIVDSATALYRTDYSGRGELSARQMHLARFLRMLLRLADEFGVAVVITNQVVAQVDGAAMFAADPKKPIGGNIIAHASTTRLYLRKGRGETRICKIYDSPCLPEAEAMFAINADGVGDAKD
Description: as §1, §2

K.lactis Rad51 = assay: Y2H assay RAD51/SEQ ID NO.: 5 pair
Description: as §1

S.pombe Rad51 = target: T4, S.pombe Rad51 (Schizosaccharomyces pombe, UniProt P36601); assay: Y2H assay RAD51/SEQ ID NO.: 5 pair
T4 construct: expressed in transfected cells
T4 sequence (P36601 whole entry, looked up): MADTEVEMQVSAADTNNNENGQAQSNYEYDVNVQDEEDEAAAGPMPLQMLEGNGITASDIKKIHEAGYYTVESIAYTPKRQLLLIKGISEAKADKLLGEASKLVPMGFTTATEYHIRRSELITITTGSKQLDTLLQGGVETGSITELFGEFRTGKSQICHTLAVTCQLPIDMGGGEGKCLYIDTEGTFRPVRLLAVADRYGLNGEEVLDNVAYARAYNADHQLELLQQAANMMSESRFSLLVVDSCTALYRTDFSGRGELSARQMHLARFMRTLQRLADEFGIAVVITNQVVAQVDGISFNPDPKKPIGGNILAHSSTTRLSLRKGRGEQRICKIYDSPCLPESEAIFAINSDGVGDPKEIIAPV
Description: as §1

G.gallus Rad51 = target: T5, G.gallus Rad51 (Gallus gallus, UniProt P37383); assay: Y2H assay RAD51/SEQ ID NO.: 5 pair
T5 construct: expressed in transfected cells
T5 sequence (P37383 1-339): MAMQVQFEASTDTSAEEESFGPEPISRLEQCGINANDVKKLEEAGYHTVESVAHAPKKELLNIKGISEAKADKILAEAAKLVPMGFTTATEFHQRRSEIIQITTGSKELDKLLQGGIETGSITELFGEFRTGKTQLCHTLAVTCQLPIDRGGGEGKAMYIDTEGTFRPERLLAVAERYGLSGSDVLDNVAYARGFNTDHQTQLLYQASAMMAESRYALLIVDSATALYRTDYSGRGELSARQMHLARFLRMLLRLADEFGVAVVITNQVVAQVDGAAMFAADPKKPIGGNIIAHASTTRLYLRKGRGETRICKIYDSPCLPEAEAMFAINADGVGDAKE
Description: as §1

K.pastoris Rad51 = assay: Y2H assay RAD51/SEQ ID NO.: 5 pair
Description: as §1

S.cerevisiae Rad51 = target: T6, S.cerevisiae Rad51 (Saccharomyces cerevisiae, UniProt P25454); assay: Y2H assay RAD51/SEQ ID NO.: 5 pair
T6 construct: expressed in transfected cells
T6 sequence (P25454 whole entry): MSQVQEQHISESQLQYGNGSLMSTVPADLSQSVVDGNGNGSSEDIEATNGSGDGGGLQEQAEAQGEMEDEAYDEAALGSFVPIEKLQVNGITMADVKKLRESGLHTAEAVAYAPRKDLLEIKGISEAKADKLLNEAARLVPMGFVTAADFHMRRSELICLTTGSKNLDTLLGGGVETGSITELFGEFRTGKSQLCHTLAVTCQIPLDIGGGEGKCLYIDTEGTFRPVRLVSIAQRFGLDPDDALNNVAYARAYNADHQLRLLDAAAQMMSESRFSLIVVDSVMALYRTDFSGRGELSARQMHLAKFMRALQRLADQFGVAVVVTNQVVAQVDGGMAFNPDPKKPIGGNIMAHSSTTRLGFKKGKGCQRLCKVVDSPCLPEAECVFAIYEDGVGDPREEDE
Description: as §1

KRRRRRRRKRLGVRLRVSRML [SEQ ID NO.: 5]
SEQ ID NO.: 5 Binding [1]: + | SEQ ID NO.: 5 Binding [2]: − | SEQ ID NO.: 5 Binding [3]: + | Compound 5 Sequence Binding (K.lactis Rad51): − | Compound 5 Sequence Binding (S.pombe Rad51): + | Compound 5 Sequence Binding (G.gallus Rad51): + | Compound 5 Sequence Binding (K.pastoris Rad51): + | Compound 5 Sequence Binding (S.cerevisiae Rad51): −
